According to patent US20070037177A1, “CYP19A1 polymorphisms” (priority 2005, published 2007):
Where a chain is given by its changes, count along the chain named.

B1: Cys264: "a CYP19A1 polypeptide (Arg264Cys) having a cysteine at amino acid residue 264" (protein, UniProt P11511 1-503, looked up, variant R264C)
Aromatase: MVLEMLNPIHYNITSIVPEAMPAATMPVLLLTGLFLLVWNYEGTSSIPGPGYCMGIGPLISHGRFLWMGIGSACNYYNRVYGEFMRVWISGEETLIISKSSSMFHIMKHNHYSSRFGSKLGLQCIGMHEKGIIFNNNPELWKTTRPFFMKALSGPGLVRMVTVCAESLKTHLDRLEEVTNESGYVDVLTLLRRVMLDTSNTLFLRIPLDESAIVVKIQGYFDAWQALLIKPDIFFKISWLYKKYEKSVKDLKDAIEVLIAEKRCRISTEEKLEECMDFATELILAEKRGDLTRENVNQCILEMLIAAPDTMSVSLFFMLFLIAKHPNVEEAIIKEIQTVIGERDIKIDDIQKLKVMENFIYESMRYQPVVDLVMRKALEDDVIDGYPVKKGTNIILNIGRMHRLEFFPKPNEFTLENFAKNVPYRYFQPFGFGPRGCAGKYIAMVMMKAILVTLLRRFHVKTLQGQCVESIQKIHDLSLHPDETKNMLEMIFTPRNSDRCLEH
B2: Thr364: "a CYP19A1 polypeptide having a threonine at amino acid residue 364. This polypeptide (Met(364)Thr) would be considered an allozyme" (protein, UniProt P11511 1-503, looked up, variant M364T)
Aromatase: B1 Aromatase with C264R, M364T

Key:
[1] = system: Recombinant Human CYP19A1 Allozymes; experiment: CYP19A1 enzyme activity of recombinant allozymes (3H2O release from [1β3H]androst-4-ene-3,17-dione, COS-1 microsomes); type: biochemical; settings: 20 nM androstenedione substrate, corrected for transfection efficiency, 6 independent transfections
[2] = system: Recombinant Human CYP19A1 Allozymes; experiment: Substrate kinetics: apparent Km of recombinant CYP19A1 allozymes with androstenedione; type: biochemical; settings: androstenedione as substrate; COS-1 microsomes

Row | Molecule | % WT activity [1] [%] | Apparent Km [2]
1 | B1 | 72 | –
2 | B2 | – | elevated
